# Article PMC9772344
# Substitutions are numbered along the chain they refer to. In names and notes the source's numbering stands.
# B1: glutamate transporter GLT-1 (excitatory amino acid transporter 2, EAAT2), WT plasmid, P43006 G82R; L85P (protein)
# chain: MASTEGANNMPKQVEVRMHDSHLSSDEPKHRNLGMRMCDKLGKNLLLSLTVFGVILGAVCGGLLRLASPIHPDVVMLIAFPRDIPMRMLKMLILPLIISSLITGLSGLDAKASGRLGTRAMVYYMSTTIIAAVLGVILVLAIHPGNPKLKKQLGPGKKNDEVSSLDAFLDLIRNLFPENLVQACFQQIQTVTKKVLVAPPSEEANTTKAVISMLNETMNEAPEETKIVIKKGLEFKDGMNVLGLIGFFIAFGIAMGKMGEQAKLMVEFFNILNEIVMKLVIMIMWYSPLGIACLICGKIIAIKDLEVVARQLGMYMITVIVGLIIHGGIFLPLIYFVVTRKNPFSFFAGIFQAWITALGTASSAGTLPVTFRCLEDNLGIDKRVTRFVLPVGATINMDGTALYEAVAAIFIAQMNGVILDGGQIVTVSLTATLASIGAASIPSAGLVTMLLILTAVGLPTEDISLLVAVDWLLDRMRTSVNVVGDSFGAGIVYHLSKSELDTIDSQHRMQEDIEMTKTQSIYDDKNHRESNSNQCVYAAHNSVVIDECKVTLAANGKSADCSVEEEPWKREK
# B2: glutamate transporter GLT-1 (excitatory amino acid transporter 2, EAAT2), WT plasmid, P43006 L85P (protein)
# chain: B1 chain with R82G
# B3: glutamate transporter GLT-1 (excitatory amino acid transporter 2, EAAT2), WT plasmid, P43006 G82R (protein)
# chain: B1 chain with P85L
# Biological target: stromal-interacting molecule 1 (STIM1), Q13586
# Experiment: Co-IP (GLT-1 capture antibody, immunoblot for STIM1, band quantification)
# Details: chain shown with the change; transfected HeLa cells; n = 3 per group; parent: est. 1.0; read off a plot
# stromal-interacting molecule 1 (STIM1), Q13586, sequence (Q13586 23-685): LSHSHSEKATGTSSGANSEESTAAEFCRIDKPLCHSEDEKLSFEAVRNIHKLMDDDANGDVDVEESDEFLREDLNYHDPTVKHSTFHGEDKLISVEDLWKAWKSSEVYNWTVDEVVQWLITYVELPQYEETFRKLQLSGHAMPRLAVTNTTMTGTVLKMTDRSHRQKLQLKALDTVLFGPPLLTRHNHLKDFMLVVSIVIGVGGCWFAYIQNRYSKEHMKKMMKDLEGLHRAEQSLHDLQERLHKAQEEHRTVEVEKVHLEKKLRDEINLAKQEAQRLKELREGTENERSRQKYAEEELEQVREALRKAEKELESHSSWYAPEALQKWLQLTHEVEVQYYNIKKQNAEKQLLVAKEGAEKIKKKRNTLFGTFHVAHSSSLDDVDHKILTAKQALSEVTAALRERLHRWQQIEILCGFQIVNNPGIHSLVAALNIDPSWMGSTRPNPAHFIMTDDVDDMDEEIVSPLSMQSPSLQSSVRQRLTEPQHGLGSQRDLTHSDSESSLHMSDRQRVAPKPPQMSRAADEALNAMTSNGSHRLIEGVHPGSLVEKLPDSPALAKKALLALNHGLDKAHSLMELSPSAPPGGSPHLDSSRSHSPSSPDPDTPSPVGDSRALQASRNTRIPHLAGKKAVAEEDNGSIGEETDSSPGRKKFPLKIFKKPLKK
row,response (relative band intensity),Binder
1,0.08,B1
2,0.12,B2
3,0.15,B3

# Biological target: stromal-interacting molecule 1 (STIM1), Q13586
# Experiment: Co-IP (STIM1 capture antibody, immunoblot for GLT-1, band quantification)
# Details: chain shown with the change; transfected HeLa cells; n = 3 per group; parent: est. 1.0; read off a plot
row,response (relative band intensity),Binder
1,0.12,B1
2,0.13,B2
3,0.15,B3

# Biological target: Orai1, Q96D31
# Experiment: Co-IP (GLT-1 capture antibody, immunoblot for Orai1, band quantification)
# Details: chain shown with the change; transfected HeLa cells; n = 3 per group; parent: est. 1.0; read off a plot
# Orai1, Q96D31, sequence (Q96D31 whole entry): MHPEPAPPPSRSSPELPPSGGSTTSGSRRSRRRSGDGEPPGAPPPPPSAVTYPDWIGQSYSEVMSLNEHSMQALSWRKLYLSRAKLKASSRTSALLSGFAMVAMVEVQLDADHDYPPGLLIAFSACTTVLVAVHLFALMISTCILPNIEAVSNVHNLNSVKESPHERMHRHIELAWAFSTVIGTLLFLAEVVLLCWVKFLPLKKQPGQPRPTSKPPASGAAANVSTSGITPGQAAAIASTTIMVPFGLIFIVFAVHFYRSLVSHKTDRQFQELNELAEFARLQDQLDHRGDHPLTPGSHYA
row,response (relative band intensity),Binder
1,0.27,B1
2,0.17,B2
3,0.22,B3
